The target in this experiment is Recombinant human integrin αvβ5 (human) (UniProt P06756).
Sequence of UniProt P06756 (P06756 31-1048, chain 1 of 2): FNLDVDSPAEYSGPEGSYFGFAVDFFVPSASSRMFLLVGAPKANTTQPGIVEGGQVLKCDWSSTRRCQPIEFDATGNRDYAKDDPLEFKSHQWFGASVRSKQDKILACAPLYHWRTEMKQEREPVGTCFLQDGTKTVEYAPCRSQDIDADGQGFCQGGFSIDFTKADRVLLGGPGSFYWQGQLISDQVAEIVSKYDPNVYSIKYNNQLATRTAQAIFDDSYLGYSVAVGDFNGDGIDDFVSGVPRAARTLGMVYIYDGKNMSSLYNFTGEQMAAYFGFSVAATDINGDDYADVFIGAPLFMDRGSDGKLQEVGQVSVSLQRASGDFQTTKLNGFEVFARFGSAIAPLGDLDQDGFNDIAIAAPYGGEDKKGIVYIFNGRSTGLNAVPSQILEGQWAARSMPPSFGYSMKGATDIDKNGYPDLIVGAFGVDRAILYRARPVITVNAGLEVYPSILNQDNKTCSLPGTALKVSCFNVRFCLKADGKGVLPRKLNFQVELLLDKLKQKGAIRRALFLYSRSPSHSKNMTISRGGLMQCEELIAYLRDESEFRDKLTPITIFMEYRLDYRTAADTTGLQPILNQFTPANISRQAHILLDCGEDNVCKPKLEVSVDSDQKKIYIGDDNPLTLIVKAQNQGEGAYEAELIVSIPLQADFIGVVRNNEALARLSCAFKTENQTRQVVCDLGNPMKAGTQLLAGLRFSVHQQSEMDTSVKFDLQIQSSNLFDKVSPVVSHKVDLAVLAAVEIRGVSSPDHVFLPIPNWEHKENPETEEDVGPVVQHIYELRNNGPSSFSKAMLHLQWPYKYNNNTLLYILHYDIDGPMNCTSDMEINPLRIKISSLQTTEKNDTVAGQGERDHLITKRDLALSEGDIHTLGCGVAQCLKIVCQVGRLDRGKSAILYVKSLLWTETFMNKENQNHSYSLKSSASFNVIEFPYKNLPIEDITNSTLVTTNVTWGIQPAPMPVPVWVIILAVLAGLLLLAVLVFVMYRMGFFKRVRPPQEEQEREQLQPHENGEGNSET
Sequence of UniProt P06756 (P18084 24-719, chain 2 of 2, further chain): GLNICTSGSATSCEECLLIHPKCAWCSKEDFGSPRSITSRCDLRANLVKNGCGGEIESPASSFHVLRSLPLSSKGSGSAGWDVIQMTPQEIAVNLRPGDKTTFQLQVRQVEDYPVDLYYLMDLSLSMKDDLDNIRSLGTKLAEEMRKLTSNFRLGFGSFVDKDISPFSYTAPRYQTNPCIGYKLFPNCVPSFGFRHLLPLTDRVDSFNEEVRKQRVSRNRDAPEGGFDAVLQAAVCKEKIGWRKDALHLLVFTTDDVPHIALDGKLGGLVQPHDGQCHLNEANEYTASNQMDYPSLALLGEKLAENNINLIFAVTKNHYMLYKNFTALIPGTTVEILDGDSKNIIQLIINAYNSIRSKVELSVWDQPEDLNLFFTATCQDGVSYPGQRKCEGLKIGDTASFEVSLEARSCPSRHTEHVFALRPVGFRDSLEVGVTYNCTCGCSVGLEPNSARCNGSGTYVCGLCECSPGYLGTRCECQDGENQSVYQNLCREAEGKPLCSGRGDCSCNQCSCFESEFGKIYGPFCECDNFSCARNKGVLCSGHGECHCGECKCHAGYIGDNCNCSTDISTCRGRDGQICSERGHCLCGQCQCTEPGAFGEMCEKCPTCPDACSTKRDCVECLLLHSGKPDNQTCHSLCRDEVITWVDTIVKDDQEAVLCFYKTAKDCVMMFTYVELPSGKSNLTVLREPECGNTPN

Regarding “Recombinant human angiopoietin 2 (from UniProt O15123 19-496) (ligand)”, the Ang2-induced astrocyte apoptosis under high glucose (annexin-V/PI FACS, 48 h, percentage of apoptotic cells) with anti-integrin αvβ5 blocking antibody (10 μg/ml) was found to be 19.3%.

The record behind these values is article PMC5399183.
